Measurements published in the RNAGym collection of RNA variant scans (doi:10.1073/pnas.2313332121).

B1: TPR t1 (parent)
chain: GACCAAUCUGCCCUCAGAGCUCGAGAACAUCUUCGGAUGCAGAGGAGGCAGGCUUCGGUGGCGCGAUAGCGCCAACGUCCUCAACCUCCAAUGCAUCCCACCACAUGAUGAUGCCUGAAGAGCCUUGGUUUUUUG

Variants of: B1
Assay: polymerase ribozyme fitness, log enrichment relative to wild type (log ratio); higher = more active; in vitro selection for triplet polymerase activity
Procedure, shortened: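 Input and output libraries were sequenced on Illumina after a single in vitro selection round, run in triplicate on PCR-built, transcribed mutant libraries of each subunit of a heterodimeric triplet polymerase ribozyme. Selection annealed libraries to a biotinylated primer, the partner subunit and triplets, incubated them frozen at −7 °C, then gel-excised extended constructs for streptavidin-bead capture and RT-PCR. Genotypes with ≥10 input reads and ≥1 read per output were kept. Fitness is the logarithm, taken in base 2, of genotype enrichment divided by wild-type enrichment, using inverse-variance-weighted replicate averages.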
For C4G C12U C97A U112C, the “polymerase ribozyme fitness (log ratio)” value was -2.59. For A5C G58A G60C, the “polymerase ribozyme fitness (log ratio)” value was -0.634. For C4U C11A G51C, the “polymerase ribozyme fitness (log ratio)” value was -4.83. In the case of A5C C124A U126A U131A, the “polymerase ribozyme fitness (log ratio)” value is reported as 0.939. In the case of A5C C88G G127A, the “polymerase ribozyme fitness (log ratio)” value is reported as -2.6. In the case of C4G U54A G60C, the “polymerase ribozyme fitness (log ratio)” value is reported as -1.88. In the case of C4G G39U A46C C72A U87G C88G, the “polymerase ribozyme fitness (log ratio)” value is reported as -3.06. For C4G A18C A46G A83U G128A, the “polymerase ribozyme fitness (log ratio)” value was -5.74. For A5G A91C, the “polymerase ribozyme fitness (log ratio)” value was -1.57. In the case of A5C U32C A41G G60A U78A U96A, the “polymerase ribozyme fitness (log ratio)” value is reported as -2.78. For C3U U112G C114A, the “polymerase ribozyme fitness (log ratio)” value was -3.78. With A5C U7C G63U C94G G113C A118C the “polymerase ribozyme fitness (log ratio)” value was -6.82. With A5C U7G U54A G110C the “polymerase ribozyme fitness (log ratio)” value was -4.81. With A5G A26U the “polymerase ribozyme fitness (log ratio)” value was -2.44. For A5G C40A C72U G110U, the “polymerase ribozyme fitness (log ratio)” value was -3.65. With C3U C86U A95U U125G U126G the “polymerase ribozyme fitness (log ratio)” value was -3.14. In the case of C4G C12A C40A C72U G77U, the “polymerase ribozyme fitness (log ratio)” value is reported as -3.43. For C4A A46U C88U U92A U116C, the “polymerase ribozyme fitness (log ratio)” value was -6.04. In the case of C3U U9G G19U G58C, the “polymerase ribozyme fitness (log ratio)” value is reported as -3.13. With C4U C49U A66G G69C U78A the “polymerase ribozyme fitness (log ratio)” value was -5.15. With A5C C11A A50G C53A C99A C102G C104A C115U the “polymerase ribozyme fitness (log ratio)” value was -7.15. With A5C C11U G122A the “polymerase ribozyme fitness (log ratio)” value was 0.875. With A5C U9C C28G C56U G120A the “polymerase ribozyme fitness (log ratio)” value was -1.71. In the case of C4A C13A A27C C123G, the “polymerase ribozyme fitness (log ratio)” value is reported as -3.14. In the case of C3U G23C G60A U106A A111C, the “polymerase ribozyme fitness (log ratio)” value is reported as -6.81. In the case of C3U C73U, the “polymerase ribozyme fitness (log ratio)” value is reported as -0.279. For C3U U9C C49A G69A C115A, the “polymerase ribozyme fitness (log ratio)” value was -0.734. With C3U G44C C114A A119U G122C the “polymerase ribozyme fitness (log ratio)” value was -3.33. For C4U A24U C70G U92G U116C G120C, the “polymerase ribozyme fitness (log ratio)” value was -6.86. With C4G C72U the “polymerase ribozyme fitness (log ratio)” value was -1.37. For C3U U92C, the “polymerase ribozyme fitness (log ratio)” value was -1.23. In the case of A5C C12A A27U, the “polymerase ribozyme fitness (log ratio)” value is reported as -4.25. In the case of C4A C80A, the “polymerase ribozyme fitness (log ratio)” value is reported as -5.24. For C4U A43G G47U C53U G61U, the “polymerase ribozyme fitness (log ratio)” value was -3.38. With C4G C8G C53A U112G G120A the “polymerase ribozyme fitness (log ratio)” value was -2.51. In the case of A5C A43G C53U G63C G113C, the “polymerase ribozyme fitness (log ratio)” value is reported as -3.6. In the case of A5C A16G C20U A43G A121G, the “polymerase ribozyme fitness (log ratio)” value is reported as -0.652. In the case of A5C G10A C86A, the “polymerase ribozyme fitness (log ratio)” value is reported as -0.155. With C4U G36U the “polymerase ribozyme fitness (log ratio)” value was -1.82. With A5C G42U G48C G69U the “polymerase ribozyme fitness (log ratio)” value was -0.971. With C3U G39U G47A G117A the “polymerase ribozyme fitness (log ratio)” value was -4.33. With C4U U130A the “polymerase ribozyme fitness (log ratio)” value was -1.49. For C3U C123A, the “polymerase ribozyme fitness (log ratio)” value was 0.564. For C3U C123G, the “polymerase ribozyme fitness (log ratio)” value was 1.6. For A5C C104U, the “polymerase ribozyme fitness (log ratio)” value was -1.05. For C4U G60U C114U, the “polymerase ribozyme fitness (log ratio)” value was -3.78. For C3U G69U G113C, the “polymerase ribozyme fitness (log ratio)” value was -1.33. With C4A U9A A43U C56A A83C U126A the “polymerase ribozyme fitness (log ratio)” value was -4.76. In the case of A5G C8U C34A C62U G117A, the “polymerase ribozyme fitness (log ratio)” value is reported as -5.35. In the case of C4U A43U C88U U92G, the “polymerase ribozyme fitness (log ratio)” value is reported as -2.04. With C3U U125A the “polymerase ribozyme fitness (log ratio)” value was -1.04. With C4G A5G C53A C89A G113U C114U G122U U129G the “polymerase ribozyme fitness (log ratio)” value was -4.07. In the case of C4G A111G, the “polymerase ribozyme fitness (log ratio)” value is reported as -1.57. For C4G C13U C53U A68G C115G A121U, the “polymerase ribozyme fitness (log ratio)” value was -1.92. For C4U A5U C31G G45U U54A A68U G110A C114U, the “polymerase ribozyme fitness (log ratio)” value was -6.24. With C3U U7G A111U the “polymerase ribozyme fitness (log ratio)” value was -1.66. With C4U A37U U38A A46G A50G the “polymerase ribozyme fitness (log ratio)” value was -2.72. In the case of C4G C56A U59G C104U A111U C123U, the “polymerase ribozyme fitness (log ratio)” value is reported as -4.15. In the case of C4G A50C C115U, the “polymerase ribozyme fitness (log ratio)” value is reported as -4.34. In the case of A5C C53G U96A C123U, the “polymerase ribozyme fitness (log ratio)” value is reported as -0.893. In the case of C4U A18C A29G C56A, the “polymerase ribozyme fitness (log ratio)” value is reported as -4.17. With C4A C13A G17A C22U A27G A46C G52C the “polymerase ribozyme fitness (log ratio)” value was -6.56. For C4G U106C C115G, the “polymerase ribozyme fitness (log ratio)” value was -4.76. In the case of C3U G39A U54G G120C, the “polymerase ribozyme fitness (log ratio)” value is reported as 0.423. In the case of C4U C13G C15A G19A A90C C115U A119G, the “polymerase ribozyme fitness (log ratio)” value is reported as -5.79. For C3U U78C A105C C124U, the “polymerase ribozyme fitness (log ratio)” value was -1.78. For C4U A18U U55G C86U, the “polymerase ribozyme fitness (log ratio)” value was -2.79. For C3U G69U C98A G113A, the “polymerase ribozyme fitness (log ratio)” value was -1.77. For C4A G69U A74G A90U U106A G117C, the “polymerase ribozyme fitness (log ratio)” value was -4.9. In the case of A5G A6C A43G C72U, the “polymerase ribozyme fitness (log ratio)” value is reported as -2.46. For A5C A84U, the “polymerase ribozyme fitness (log ratio)” value was -1.12. In the case of C4U C72G C94G G113A G122U, the “polymerase ribozyme fitness (log ratio)” value is reported as -3.87. In the case of C4A G63A, the “polymerase ribozyme fitness (log ratio)” value is reported as -1.65. In the case of C4G G71U, the “polymerase ribozyme fitness (log ratio)” value is reported as -1.92. In the case of C4G A5C C82U U125A, the “polymerase ribozyme fitness (log ratio)” value is reported as -1.74. With A5C A74G C85A C104U the “polymerase ribozyme fitness (log ratio)” value was -0.8. In the case of C4G U9C G57A G63C C79A A84C C89U, the “polymerase ribozyme fitness (log ratio)” value is reported as -4.8. For A5C C11U A43U U59C G60A, the “polymerase ribozyme fitness (log ratio)” value was -4.12. For C4G G10C C115U, the “polymerase ribozyme fitness (log ratio)” value was -3.25. With C3U U38G C62U G120A A121G G122A C123G U125C the “polymerase ribozyme fitness (log ratio)” value was -0.77. For C4U C49U C85U C89G, the “polymerase ribozyme fitness (log ratio)” value was -2.63. With C4A G36U C70U the “polymerase ribozyme fitness (log ratio)” value was -3.69. For C4U A27C U54C C82A, the “polymerase ribozyme fitness (log ratio)” value was -3.17. For C4A G120U, the “polymerase ribozyme fitness (log ratio)” value was -1.6.
